Results on one variant are retold here after IntAct's records for PubMed 17380128.

To fix the notation:
B1: Retinoblastoma-associated protein (Homo sapiens), P06400 (parent)
chain: MPPKTPRKTAATAAAAAAEPPAPPPPPPPEEDPEQDSGPEDLPLVRLEFEETEEPDFTALCQKLKIPDHVRERAWLTWEKVSSVDGVLGGYIQKKKELWGICIFIAAVDLDEMSFTFTELQKNIEISVHKFFNLLKEIDTSTKVDNAMSRLLKKYDVLFALFSKLERTCELIYLTQPSSSISTEINSALVLKVSWITFLLAKGEVLQMEDDLVISFQLMLCVLDYFIKLSPPMLLKEPYKTAVIPINGSPRTPRRGQNRSARIAKQLENDTRIIEVLCKEHECNIDEVKNVYFKNFIPFMNSLGLVTSNGLPEVENLSKRYEEIYLKNKDLDARLFLDHDKTLQTDSIDSFETQRTPRKSNLDEEVNVIPPHTPVRTVMNTIQQLMMILNSASDQPSENLISYFNNCTVNPKESILKRVKDIGYIFKEKFAKAVGQGCVEIGSQRYKLGVRLYYRVMESMLKSEEERLSIQNFSKLLNDNIFHMSLLACALEVVMATYSRSTSQNLDSGTDLSFPWILNVLNLKAFDFYKVIESFIKAEGNLTREMIKHLERCEHRIMESLAWLSDSPLFDLIKQSKDREGPTDHLESACPLNLPLQNNHTAADMYLSPVRSPKKKGSTTRVNSTANAETQATSAFQTQKPLKSTSLSLFYKKVYRLAYLRLNTLCERLLSEHPELEHIIWTLFQHTLQNEYELMRDRHLDQIMMCSMYGICKVKNIDLKFKIIVTAYKDLPHAVQETFKRVLIKEEEYDSIIVFYNSVFMQRLKTNILQYASTRPPTLSPIPHIPRSPYKFPSSPLRIPGGNIYISPLKSPYKISEGLPTPTKMTPRSRILVSIGESFGTSEKFQKINQMVCNSDRVLKRSAEGSNPPKPLKKLRFDIEGSDEADGSKHLPGESKFQQKLAEMTSTRTRMQKQKMNDSMDTSNKEEK

In this assay the parent is B1. The following applies: with e2f1_human E2F1, Q01094.
e2f1_human E2F1, Q01094, sequence (Q01094 whole entry): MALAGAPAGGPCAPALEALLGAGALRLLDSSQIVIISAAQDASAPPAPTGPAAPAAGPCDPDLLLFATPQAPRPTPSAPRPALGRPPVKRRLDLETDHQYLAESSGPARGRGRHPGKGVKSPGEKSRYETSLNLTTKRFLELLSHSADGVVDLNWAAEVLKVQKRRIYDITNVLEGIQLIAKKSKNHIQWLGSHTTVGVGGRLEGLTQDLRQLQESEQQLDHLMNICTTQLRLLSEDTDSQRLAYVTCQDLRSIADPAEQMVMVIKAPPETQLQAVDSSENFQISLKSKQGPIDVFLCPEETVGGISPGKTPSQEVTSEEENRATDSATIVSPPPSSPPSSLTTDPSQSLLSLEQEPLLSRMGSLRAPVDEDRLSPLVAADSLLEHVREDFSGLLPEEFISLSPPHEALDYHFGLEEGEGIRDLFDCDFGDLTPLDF
For S612A, the “effect of a mutation on the interaction” value was “decreasing interaction”.
